# Measurements: patent publication US20250295571A1, “COMPOSITIONS AND METHODS FOR STIMULATION OF HAIR GROWTH” (THE REGENTS OF THE UNIVERSITY OF CALIFORNIA, priority 2022, published 2025)
# What was measured:
# mouse host HFs = assay: Human occipital scalp HF-on-SCID mouse xenograft model, adjacent mouse host HFs; format: in vivo; conditions: three daily doses on post-grafting day 30; counted on post-grafting day 50; compared to BSA (n=5), rhSCUBE3 n=6
# Description: (§1) FIGS. 2A-2I. SCUBE3 induces hair growth. (2A) Expression of pan-isoform Scube3 mRNA in dorsal mouse skin at indicated postnatal time points. (2B) Time course analysis of dorsal hair growth patterns in representative control (top) and Scube3^−/− mice (bottom) between days P24-30. Mice were shaved before each round of photography. (2C) Representative images of microinjection sites for BSA (top) and rhSCUBE3 (bottom). Affi-gel blue agarose beads are visible. Newly growing anagen HFs are pigmented. (2D) Quantification of induced anagen HFs in response to rhSCUBE3 on day 14. n=7; *** P<0.0002. (2E) Representative images of microinjection sites for BSA (left) and rhSCUBE3 (right) on 20-month-old mice. Affi-gel blue agarose beads are visible. Newly growing anagen HFs are pigmented. (2F) Quantification of induced anagen HFs in aged mice on day 14 after protein injection. n=9; * P<0.0001. (2G) Expression of K14, KI67 and SCUBE3 mRNA in human anagen occipital scalp HF. […] (2I) Scattered plot of human and mouse anagen HF quantification. […]
# (§2) To start evaluating the translational potential of SCUBE3, first we examined its expression pattern in human anagen HFs from occipital scalp of volunteer donors, undergoing autologous hair transplantation procedures. […] Anagen phase human and adjacent mouse host HFs were then counted at each injection site on post-grafting day 50. […]
# anagen HFs [1] = assay: Intradermal microinjection of protein in mice starting at P48, induced anagen HFs counted on day 14; format: in vivo, mouse; conditions: intradermally microinjected for four days starting at P48; compared on day 14 to BSA; n=7
# Description: (§3) FIGS. 2A-2I. SCUBE3 induces hair growth. (2A) Expression of pan-isoform Scube3 mRNA in dorsal mouse skin at indicated postnatal time points. (2B) Time course analysis of dorsal hair growth patterns in representative control (top) and Scube3^−/− mice (bottom) between days P24-30. Mice were shaved before each round of photography. (2C) Representative images of microinjection sites for BSA (top) and rhSCUBE3 (bottom). Affi-gel blue agarose beads are visible. Newly growing anagen HFs are pigmented. (2D) Quantification of induced anagen HFs in response to rhSCUBE3 on day 14. n=7; *** P<0.0002. (2E) Representative images of microinjection sites for BSA (left) and rhSCUBE3 (right) on 20-month-old mice. Affi-gel blue agarose beads are visible. Newly growing anagen HFs are pigmented. (2F) Quantification of induced anagen HFs in aged mice on day 14 after protein injection. n=9; * P<0.0001. (2G) Expression of K14, KI67 and SCUBE3 mRNA in human anagen occipital scalp HF. SCUBE3 mRNA is specifically and highly expressed in DP and adjacent dermal sheath cup. (2H) Representative images of microinjection sites for BSA and rhSCUBE3 in human occipital scalp HF-on-SCID mouse xenograft model. (2I) Scattered plot of human and mouse anagen HF quantification. Striped dots represent rhSCUBE3-injected samples and solid dots represent BSA-injected samples. Tissue sections were counterstained with DAPI in 2A, 2G. […]
# [2] = system: grafted human occipital scalp HFs; assay: Human occipital scalp HF-on-SCID mouse xenograft model, grafted human HFs; format: in vivo; conditions: three daily doses on post-grafting day 30; counted on post-grafting day 50; compared to BSA (n=5), rhSCUBE3 n=6
# Description: as §1, §2
# anagen HFs [3] = assay: Intradermal protein microinjection in aged mice over 20 months of age, induced anagen HFs on day 14; format: in vivo, mouse; conditions: day 14 after protein injection, n=9
# Description: as §3
molecule,measurement,setting,value
"rhSCUBE3: recombinant human SCUBE3 (Signal Peptide, CUB Domain And EGF Like Domain Containing 3) protein (protein, listed as Homo sapiens) CGGELGEFTGYIESPNYPGNYPAGVECIWNINPPPKRKILIVVPEIFLPSEDECGDVLVMRKNSSPSSITTYETCQTYERPIAFTARSRKLWINFKTSEANSARGFQIPYVTYDEDYEQLVEDIVRDGRLYASENHQEILKDKKLIKAFFEVLAHPQNYFKYTEKHKEMLPKSFIKLLRSKVSSFLRPYK",new anagen of mouse host HFs,mouse host HFs,stimulated new anagen of mouse host HFs
same,"new hair growth (induced anagen HFs), mean difference compared to BSA",anagen HFs [1],18+/−3.44
same,anagen entry of grafted human HFs,[2],accelerated anagen entry of grafted human HFs
same,"new hair growth at the injection sites (induced anagen HFs), mean difference vs BSA",anagen HFs [3],31.78+/−2.40
